Values of other authors in article PMC9190259.
pKd: −log10 of the molar value.

Target: TNFα (Homo sapiens) (UniProt P01375)
Sequence of UniProt P01375 (P01375 77-233): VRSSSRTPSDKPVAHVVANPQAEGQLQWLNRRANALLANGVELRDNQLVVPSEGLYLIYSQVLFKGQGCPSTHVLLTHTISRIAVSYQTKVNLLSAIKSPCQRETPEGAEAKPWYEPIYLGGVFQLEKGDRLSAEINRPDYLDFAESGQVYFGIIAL

- pKd: 10.05
Substance: Certolizumab Fab
